One experiment has as its system HEK293 cells. Put plainly: Luminescence and fold response of biosensor clones in HEK293 cells after isoproterenol or FSK. It is filed as cell-based. Conditions: for Isoproterenol-5 minutes Induced / Isoproterenol-5 minutes Resp: 5 minutes after isoproterenol; for Forskolin (FSK) Induced / Forskolin (FSK) Resp: 15 minutes after FSK; for Isoproterenol-15 minutes Induced / Isoproterenol-15 minutes Resp: 15 minutes after isoproterenol; for Isoproterenol-5 minutes Resp / Forskolin (FSK) Resp / Isoproterenol-15 minutes Resp: RLU induced / RLU uninduced; for Isoproterenol-5 minutes Uninduced / Forskolin (FSK) Uninduced / Isoproterenol-15 minutes Uninduced: uninduced cells; for Forskolin (FSK) Uninduced / Isoproterenol-15 minutes Uninduced: 15 minutes. On the procedure:
B. HEK293 cells were transiently transfected with plasmid DNAs encoding various biosensor mutants as above. These biosensor mutants contained the E284A and V316I mutation in the RIIbetaB cAMP binding domain and the modified linker sequence 7A1 (GSNWDSGCSREG; SEQ ID NO: 129). The clones also contained the additional mutations outlined in Table 5. Cells were equilibrated for 2 hours at room temperature with 2 mM EF-Luc. Luminescence was measured 5 and 15 minutes after addition of the isoproterenol and 15 minutes after addition of FSK. Fold response (response; Resp.) was calculated by dividing relative light units (RLUs) from induced cells by the RLUs from uninduced cells. As a control, the biosensor GS358 and 7A1 were included.

A further experiment concerns the target T1, dopamine D2 receptor (Homo sapiens, UniProt P14416).
T1 construct: expressed in transfected cells
Put plainly: Forskolin, dopamine and haloperidol responses of biosensor clones in HEK293 cells stably expressing the dopamine D2 receptor. Type of experiment: cell-based. Conditions: for Dopamine Induced: 3 μM FSK + 0.3 μM dopamine; for Dopamine Induced / Forskolin (FSK) Induced / Forskolin (FSK) Uninduced: 10 minutes; for Forskolin (FSK) Induced: 3 μM FSK; for Halo Induced: 10 μM Haloperidol pre-treatment, then 3 μM FSK + 0.3 μM dopamine; for Dopamine Response: RLU agonist-treated / forskolin-treated; for Forskolin (FSK) Response: RLU forskolin-treated / untreated; for Halo Response: RLU haloperidol then FSK + dopamine / FSK + dopamine alone; for Forskolin (FSK) Uninduced: untreated (media alone). From the text:
To measure changes in the intracellular concentration of cAMP, HEK293 cells are transiently transfected with mutant cAMP biosensors followed by treatment with compounds known to increase or decrease the intracellular cAMP concentration through GPCR activation of Gs- or Gi-coupled receptors, respectively.
HEK293 cells stably expressing the dopamine D2 receptor were transiently transfected with the mutant cAMP biosensors from Example VIIB. Cells were also transfected with either 7A1 (Example III) or GS358 (parent biosensor) as controls. Cells were equilibrated for 2 hours at room temperature using 2 mM EF-luc. Antagonist assay wells were pre-treated for 10-15 minutes at room temperature with 10 μM Haloperidol (Halo). Next, the following reagents were added to their respective wells: media alone to “untreated” samples; 3 μM forskolin (FSK) to “forskolin-treated” samples; 3 μM FSK+0.3 μM dopamine to “agonist-treated” samples; and 3 μM FSK+0.3 μM dopamine to the aforementioned wells pre-treated with Halo. The cells were then incubated at room temperature for 10 minutes and luminescence was measured. Fold response for FSK was calculated by dividing the RLU from “forskolin-treated” cells by the RLU from the “untreated” cells. Fold response for dopamine treatment was calculated by dividing the RLU from the “agonist-treated” cells by the RLU from the “forskolin-treated” cells. Fold response for Haloperidol treatment was calculated by dividing the RLU from the cells treated with haloperidol then forskolin plus dopamine by the RLU of cells treated with forskolin plus dopamine alone.

T1 sequence (P14416 whole entry, species assumed): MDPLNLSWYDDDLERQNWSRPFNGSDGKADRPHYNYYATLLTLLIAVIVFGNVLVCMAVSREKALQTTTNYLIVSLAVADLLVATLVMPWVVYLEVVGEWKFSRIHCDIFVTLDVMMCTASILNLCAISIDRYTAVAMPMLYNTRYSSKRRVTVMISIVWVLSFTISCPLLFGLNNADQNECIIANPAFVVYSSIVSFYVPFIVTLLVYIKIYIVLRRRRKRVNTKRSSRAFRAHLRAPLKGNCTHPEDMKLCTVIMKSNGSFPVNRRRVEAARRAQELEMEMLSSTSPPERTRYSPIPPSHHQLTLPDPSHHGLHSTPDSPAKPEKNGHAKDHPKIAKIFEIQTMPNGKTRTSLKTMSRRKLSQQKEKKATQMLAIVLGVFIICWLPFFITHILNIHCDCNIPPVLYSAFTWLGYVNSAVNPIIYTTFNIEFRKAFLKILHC

B1: 15H6: 7A1 biosensor with F433Y, M493V in Luc2.0 and modified linker …; SEQ ID NO:107, 108 (protein)
chain: MPGAVGKVVPFFEAKVVDLDTGKTLGVNQRGELCVRGPMIMSGYVNNPEATNALIDKDGWLHSGDIAYWDEDEHFYIVDRLKSLIKYKGYQVAPAELESILLQHPNIFDAGVAGLPDDDAGELPAAVVVLEHGKTVTEKEIVDYVASQVTTAKKLRGGVVFVDEVPKGLTGKLDARKIREILIKAKKGSNWDSGCSRECMYESFIESLPFLKSLEFSARLKVVDVIGTKVYNDGEQIIAQGDSADSFFIIESGEVKITMKRKGKSEVEENGAVEIARCSRGQYFGELALVTNKPRAASAHAIGTVKCLAMDVQAFERLLGPCMEIMKRNIATYEEQLVALFGTNMDIVAKNIKKGPAPFYPLEDGTAGEQLHKAMKRYALVPGTIAFTDAHIEVDITYAEYFEMSVRLAEAMKRYGLNTNHRIVVCSENSLQFFMPVLGALFIGVAVAPANDIYNERELLNSMGISQPTVVFVSKKGLQKILNVQKKLPIIQKIIIMDSKTDYQGFQSMYTFVTSHLPPGFNEYDFVPESFDRDKTIALIMNSSGSTGLPKGVALPHRTACVRFSHARDPIFGNQIIPDTAILSVVPFHHGFGMFTTLGYLICGFRVVLMYRFEEELFLRSLQDYKIQSALLVPTLFSFFAKSTLIDKYDLSNLHEIASGGAPLSKEVGEAVAKRFHLPGIRQGYGLTETTSAILITPEGV
notes: 7A1 biosensor with F433Y, M493V in Luc2.0 and modified linker …
For the molecule B1, in the experiment with HEK293 cells, the “Isoproterenol-5 minutes Induced” value is recorded as 91567 RLU, the “Forskolin (FSK) Induced” value turned out to be 29500 RLU, the “Isoproterenol-15 minutes Induced” value was found to be 244700 RLU and the “Isoproterenol-5 minutes Resp” value is recorded as 85 fold. For the same molecule, in the experiment with HEK293 cells, the “Forskolin (FSK) Resp” value was 57 fold, the “Isoproterenol-15 minutes Resp” value is 61 fold, the “Isoproterenol-5 minutes Uninduced” value is on record as 1073 RLU and the “Forskolin (FSK) Uninduced” value amounted to 4040 RLU. Moreover, in the experiment on HEK293 cells, the “Isoproterenol-15 minutes Uninduced” value was found to be 4040 RLU. In addition, in the experiment with dopamine D2 receptor, the “Dopamine Induced” value was determined as 30 RLU, the “Forskolin (FSK) Induced” value turned out to be 7177 RLU, the “Halo Induced” value was determined as 65 RLU and the “Dopamine Response” value is listed as 0.56 fold. For the same molecule, in the experiment with dopamine D2 receptor, the “Forskolin (FSK) Response” value came to 25 fold, the “Halo Response” value stood at 2.2 fold and the “Forskolin (FSK) Uninduced” value came to 283 RLU.

B2: 9G4: 7A1 biosensor with E382K in RIIβb; SEQ ID NO:37, 38 (protein)
chain: MPGAVGKVVPFFEAKVVDLDTGKTLGVNQRGELCVRGPMIMSGYVNNPEATNALIDKDGWLHSGDIAYWDEDEHFFIVDRLKSLIKYKGYQVAPAELESILLQHPNIFDAGVAGLPDDDAGELPAAVVVLEHGKTMTEKEIVDYVASQVTTAKKLRGGVVFVDEVPKGLTGKLDARKIREILIKAKKGSNWDSGCSREGMYESFIESLPFLKSLEFSARLKVVDVIGTKVYNDGEQIIAQGDSADSFFIIESGEVKITMKRKGKSEVEENGAVEIARCSRGQYFGELALVTNKPRAASAHAIGTVKCLAMDVQAFKRLLGPCMEIMKRNIATYEEQLVALFGTNMDIVAKNIKKGPAPFYPLEDGTAGEQLHKAMKRYALVPGTIAFTDAHIEVDITYAEYFEMSVRLAEAMKRYGLNTNHRIVVCSENSLQFFMPVLGALFIGVAVAPANDIYNERELLNSMGISQPTVVFVSKKGLQKILNVQKKLPIIQKIIIMDSKTDYQGFQSMYTFVTSHLPPGFNEYDFVPESFDRDKTIALIMNSSGSTGLPKGVALPHRTACVRFSHARDPIFGNQIIPDTAILSVVPFHHGFGMFTTLGYLICGFRVVLMYRFEEELFLRSLQDYKIQSALLVPTLFSFFAKSTLIDKYDLSNLHEIASGGAPLSKEVGEAVAKRFHLPGIRQGYGLTETTSAILITPEGV
Take B2: in the experiment with HEK293 cells, the “Isoproterenol-5 minutes Induced” value came to 27930 RLU, the “Forskolin (FSK) Induced” value is on record as 263020 RLU, the “Isoproterenol-15 minutes Induced” value came to 264500 RLU and the “Isoproterenol-5 minutes Resp” value is recorded as 50 fold. For the same molecule, in the experiment on HEK293 cells, the “Forskolin (FSK) Resp” value is 46 fold, the “Isoproterenol-15 minutes Resp” value came to 46 fold, the “Isoproterenol-5 minutes Uninduced” value is 553 RLU and the “Forskolin (FSK) Uninduced” value worked out at 5760 RLU. For the same molecule, in the experiment on HEK293 cells, the “Isoproterenol-15 minutes Uninduced” value turned out to be 5760 RLU. In the experiment with dopamine D2 receptor, the “Dopamine Induced” value was 1735 RLU, the “Forskolin (FSK) Induced” value turned out to be 4133 RLU, the “Halo Induced” value is reported as 4370 RLU and the “Dopamine Response” value was found to be 0.42 fold. For the same molecule, in the experiment with dopamine D2 receptor, the “Forskolin (FSK) Response” value worked out at 14 fold, the “Halo Response” value is given as 2.5 fold and the “Forskolin (FSK) Uninduced” value stood at 293 RLU.

B3: 16B3: 7A1 biosensor with S440N in Luc2.0; SEQ ID NO:72, 73 (protein)
chain: MPGAVGKVVPFFEAKVVDLDTGKTLGVNQRGELCVRGPMIMSGYVNNPEATNALIDKDGWLHSGDIAYWDEDEHFFIVDRLKNLIKYKGYQVAPAELESILLQHPNIFDAGVAGLPDDDAGELPAAVVVLEHGKTMTEKEIVDYVASQVTTAKKLRGGVVFVDEVPKGLTGKLDARKIREILIKAKKGSNWDSGCSREGMYESFIESLPFLKSLEFSARLKVVDVIGTKVYNDGEQIIAQGDSADSFFIIESGEVKITMKRKGKSEVEENGAVEIARCSRGQYFGELALVTNKPRAASAHAIGTVKCLAMDVQAFERLLGPCMEIMKRNIATYEEQLVALFGTNMDIVAKNIKKGPAPFYPLEDGTAGEQLHKAMKRYALVPGTIAFTDAHIEVDITYAEYFEMSVRLAEAMKRYGLNTNHRIVVCSENSLQFFMPVLGALFIGVAVAPANDIYNERELLNSMGISQPTVVFVSKKGLQKILNVQKKLPIIQKIIIMDSKTDYQGFQSMYTFVTSHLPPGFNEYDFVPESFDRDKTIALIMNSSGSTGLPKGVALPHRTACVRFSHARDPIFGNQIIPDTAILSVVPFHHGFGMFTTLGYLICGFRVVLMYRFEEELFLRSLQDYKIQSALLVPTLFSFFAKSTLIDKYDLSNLHEIASGGAPLSKEVGEAVAKRFHLPGIRQGYGLTETTSAILITPEGV
B3: in the experiment on HEK293 cells, the “Isoproterenol-5 minutes Induced” value is given as 72003 RLU, the “Forskolin (FSK) Induced” value came to 257605 RLU, the “Isoproterenol-15 minutes Induced” value amounted to 248415 RLU and the “Isoproterenol-5 minutes Resp” value stood at 35 fold. In the experiment on HEK293 cells, the “Forskolin (FSK) Resp” value came out at 39 fold, the “Isoproterenol-15 minutes Resp” value stood at 38 fold, the “Isoproterenol-5 minutes Uninduced” value turned out to be 2063 RLU and the “Forskolin (FSK) Uninduced” value is listed as 6555 RLU. The “Isoproterenol-15 minutes Uninduced” value in the experiment with HEK293 cells stood at 6555 RLU. In the experiment with dopamine D2 receptor, the “Dopamine Induced” value amounted to 3050 RLU, the “Forskolin (FSK) Induced” value is listed as 6400 RLU, the “Halo Induced” value came to 6188 RLU and the “Dopamine Response” value is reported as 0.48 fold. In the experiment with dopamine D2 receptor, the “Forskolin (FSK) Response” value came to 17 fold, the “Halo Response” value is on record as 2.0 fold and the “Forskolin (FSK) Uninduced” value amounted to 370 RLU.

B4: 1B3: 7A1 biosensor with A338E in RIIβb; SEQ ID NO:33, 34 (protein)
chain: MPGAVGKVVPFFEAKVVDLDTGKTLGVNQRGELCVRGPMIMSGYVNNPEATNALIDKDGWLHSGDIAYWDEDEHFFIVDRLKSLIKYKGYQVAPAELESILLQHPNIFDAGVAGLPDDDAGELPAAVVVLEHGKTMTEKEIVDYVASQVTTAKKLRGGVVFVDEVPKGLTGKLDARKIREILIKAKKGSNWDSGCSREGMYESFIESLPFLKSLEFSARLKVVDVIGTKVYNDGEQIIAQGDSADSFFIIESGEVKITMKRKGKSEVEENGEVEIARCSRGQYFGELALVTNKPRAASAHAIGTVKCLAMDVQAFERLLGPCMEIMKRNIATYEEQLVALFGTNMDIVAKNIKKGPAPFYPLEDGTAGEQLHKAMKRYALVPGTIAFTDAHIEVDITYAEYFEMSVRLAEAMKRYGLNTNHRIVVCSENSLQFFMPVLGALFIGVAVAPANDIYNERELLNSMGISQPTVVFVSKKGLQKILNVQKKLPIIQKIIIMDSKTDYQGFQSMYTFVTSHLPPGFNEYDFVPESFDRDKTIALIMNSSGSTGLPKGVALPHRTACVRFSHARDPIFGNQIIPDTAILSVVPFHHGFGMFTTLGYLICGFRVVLMYRFEEELFLRSLQDYKIQSALLVPTLFSFFAKSTLIDKYDLSNLHEIASGGAPLSKEVGEAVAKRFHLPGIRQGYGLTETTSAILITPEGV
With B4, in the experiment on HEK293 cells, the “Isoproterenol-5 minutes Induced” value came out at 59767 RLU, the “Forskolin (FSK) Induced” value turned out to be 305500 RLU, the “Isoproterenol-15 minutes Induced” value is listed as 344375 RLU and the “Isoproterenol-5 minutes Resp” value worked out at 36 fold. In the experiment on HEK293 cells, the “Forskolin (FSK) Resp” value is 47 fold, the “Isoproterenol-15 minutes Resp” value came to 53 fold, the “Isoproterenol-5 minutes Uninduced” value is given as 1673 RLU and the “Forskolin (FSK) Uninduced” value was found to be 6460 RLU. Besides, the “Isoproterenol-15 minutes Uninduced” value in the experiment on HEK293 cells is on record as 6460 RLU. Also, in the experiment with dopamine D2 receptor, the “Dopamine Induced” value came out at 1898 RLU, the “Forskolin (FSK) Induced” value is on record as 8410 RLU, the “Halo Induced” value is 5228 RLU and the “Dopamine Response” value was 0.23 fold. For the same molecule, in the experiment with dopamine D2 receptor, the “Forskolin (FSK) Response” value turned out to be 18 fold, the “Halo Response” value is 2.8 fold and the “Forskolin (FSK) Uninduced” value is on record as 460 RLU.

These data come from US9879306B2, “Luciferase biosensors for cAMP” (PROMEGA CORPORATION, priority 2008, dated 2018).
